Measurements: paper PMC5548745, “Agonist-induced dimer dissociation as a macromolecular step in G protein-coupled receptor signaling” (Nature Communications, 2017)

Columns and labels:
V5-FZD6-mCherry = assay: dcFRAP of V5-FZD6-mCherry/CB1-GFP (negative control); format: cell-based, human; conditions: HEK293
Method: For dual color FRAP experiments, cells grown in four compartment 35 mm glass bottom dishes were washed three times with BE buffer[19] (150 mM NaCl, 2.5 mM KCl, 10 mM HEPES, 12 mM glucose, 0.5 mM CaCl2, and 0.5 mM MgCl2). Then, the cells were incubated at RT for 30 min with biotin-conjugated goat polyclonal anti-V5 antibody (Bethyl) diluted 1:100 in BE buffer supplemented with 2.5% bovine serum albumin. For antibody-mediated cross-linking, avidin was added and incubated for 15 min and washed two times with BE buffer before the experiments were performed. In Fig. 4, dcFRAP experiments are presented that employ chemical surface crosslinking to visualize assembly of FZD6 with DVL or heterotrimeric G proteins according to previously published protocols. Live cell imaging experiments were carried out using a Zeiss 710 laser scanning microscope. Images were acquired using a 40×, 1.2 NA C-Apochromat objective and the 488 nm and the 561 nm laser lines were used to excite GFP and mCherry fluorophores, respectively. Photobleaching was performed by 100% laser illumination of a 1.80 × 1.80 µm area placed over the cell plasma membrane. Fluorescence was measured pre- and post-bleach using low-intensity illumination for a total time period of 100 s. Average pixel intensity was measured using the ZEN2013 software, corrected for background fluctuations and bleaching artifacts and normalized to pre-bleached intensity. The recovered mobile fraction (F m) was calculated as follows: F m = (I P–I 0)/(I I–I 0), where I I is the initial intensity measured prior to bleaching, I 0 is the immediate fluorescence intensity post-bleaching and I P is intensity value post-bleaching. The mobile fraction was defined by the average of the fluorescence recovery assessed between time 85–101 s (including pre-bleach measurements). We excluded experiments in which the extracellularly tagged receptors were not sufficiently immobilized after the crosslinking procedure (cutoff at 40% crosslinking-induced reduction in mobile fraction). […]

FZD6–FZD6 dimer = assay: dcFRAP of V5-FZD6-mCherry/FZD6-GFP (FZD6 dimerization); format: cell-based, human; conditions: HEK293, 85–101 s, mean ± s.e.m.
Method: For dual color FRAP experiments, cells grown in four compartment 35 mm glass bottom dishes were washed three times with BE buffer[19] (150 mM NaCl, 2.5 mM KCl, 10 mM HEPES, 12 mM glucose, 0.5 mM CaCl2, and 0.5 mM MgCl2). Then, the cells were incubated at RT for 30 min with biotin-conjugated goat polyclonal anti-V5 antibody (Bethyl) diluted 1:100 in BE buffer supplemented with 2.5% bovine serum albumin. For antibody-mediated cross-linking, avidin was added and incubated for 15 min and washed two times with BE buffer before the experiments were performed. In Fig. 4, dcFRAP experiments are presented that employ chemical surface crosslinking to visualize assembly of FZD6 with DVL or heterotrimeric G proteins according to previously published protocols. Live cell imaging experiments were carried out using a Zeiss 710 laser scanning microscope. Images were acquired using a 40×, 1.2 NA C-Apochromat objective and the 488 nm and the 561 nm laser lines were used to excite GFP and mCherry fluorophores, respectively. Photobleaching was performed by 100% laser illumination of a 1.80 × 1.80 µm area placed over the cell plasma membrane. Fluorescence was measured pre- and post-bleach using low-intensity illumination for a total time period of 100 s. Average pixel intensity was measured using the ZEN2013 software, corrected for background fluctuations and bleaching artifacts and normalized to pre-bleached intensity. The recovered mobile fraction (F m) was calculated as follows: F m = (I P–I 0)/(I I–I 0), where I I is the initial intensity measured prior to bleaching, I 0 is the immediate fluorescence intensity post-bleaching and I P is intensity value post-bleaching. The mobile fraction was defined by the average of the fluorescence recovery assessed between time 85–101 s (including pre-bleach measurements). We excluded experiments in which the extracellularly tagged receptors were not sufficiently immobilized after the crosslinking procedure (cutoff at 40% crosslinking-induced reduction in mobile fraction). Kinetic determination of mobile fractions of crosslinked V5-FZD6-mCherry and FZD6-GFP with WNT stimulation over time were performed in one cell culture well. Measurements for each time point were performed on separate cells.
Statistical and graphical analysis was performed using Graph Pad Prism 5 software. Data were analyzed by two-tailed t-test or one-way ANOVA with Fisher’s least significant difference post hoc analysis. Curve fitting of FRAP data was done with a two-phase association nonlinear function using the least square fit. Data for receptor titration in the presence of C59 and output to P-ERK1/2 in Fig. 6h was fit to a linear regression model. All experiments were repeated at least three times in independent experiments (not representing technical replicates). For single cell analysis (dcFRAP), the number of the individual ROIs obtained from several cells in at least three independent experiments is provided in the figure legends. Data from individual ROIs are summarized for data presentation providing the sum of independent observations. Significance levels are given as: *P < 0.05; **P < 0.01; ***P < 0.001. Data in FRAP curves and bar graphs (FRAP) are presented as mean ± s.e.m.

[1] = tested on: ERK1/2 phosphorylation in HEK293 cells; assay: P-ERK1/2 immunoblot, HEK293 cells expressing SNAP-FZD6 constructs; format: cell-based
Method: Fig. 6 Relationship between FZD6 dimerization and phosphorylation of ERK1/2. a Mouse lung epithelial (MLE-12) cells were stimulated with WNT-5A (300 ng ml^−1) for 0, 2.5, 5, 10, 20 min. Cell lysates were analyzed for P-ERK1/2 and β-actin by immunoblotting. Additional information in Supplementary Fig. 6. b Bar graph summarizes three independent experiments. Densitometry data were normalized to the unstimulated control. […] Additional information in Supplementary Fig. 6. SNAP-FZD6 wt- and SNAP-FZD6 dimer mutant-induced ERK1/2 phosphorylation in the absence e and presence f of the porcupine inhibitor C59 (5 µM, overnight) were probed by immunoblotting for the SNAP-tag, P-ERK1/2, total ERK1/2 and β-actin. g The bar graph summarizes densitometry data of P-ERK1/2 normalized to total ERK1/2 from 6 different experiments. P = 0.0005; F (2, 15) = 13.08. ***P < 0.001. Empty vector transfection was used as mock. h Increasing amounts of plasmid of either SNAP-FZD6 wt or SNAP-FZD6 dimer mutant in the presence of C59 show a dose-dependent increase in P-ERK1/2 only with the dimer mutant. Data from three independent experiments for the dimer mutant were fit to a linear least-squares model (slope = 0.40 ± 0.10; R ^2 = 0.5943) and this line is shown superimposed. […] This dissociation-dependent activation can be evoked by agonist (WNT^high) or mutation of the dimer interface (symbolized by red stars). WNT^low conditions can be achieved in the presence of C59, which reduces FZD6 wt signaling
MLE-12 or HEK293 cells (ATCC) were plated in a 24- or 48-well plate at a density of 100,000 or 50,000 cells/well, respectively. After 24 h, cells were transfected using Lipofectamine 2000 according to the manufacturer’s instructions. Cells were stimulated (24 h post-transfection) with 300 ng ml^−1 recombinant carrier-free WNT-5A (CF WNT-5A; R&D Systems). Stimulation was stopped by the addition of lysis buffer (1% NP-40, 150 mM NaCl, 50 mM Tris/HCl pH 8). Lysates were sonicated and analyzed by 7.5 or 10% Mini-PROTEAN TGX precast polyacrylamide gels (Bio-Rad) and transferred to PVDF membranes using the Trans-Blot Turbo system (Bio-Rad). After blocking with 5% milk or BSA in TBS-T, membranes were incubated with primary antibodies in blocking buffer: mouse anti-β-actin (1:30,000; Sigma #A5441), rabbit anti-FZD6 (1:1000; NovusBio #NBP1-00830), rabbit anti-Phospho-p44/42 MAPK (ERK1/2) (Thr202/Tyr204) (1:1000; Cell Signaling Technology #9101 L), rabbit anti-p44/42 MAPK (ERK1/2) (1:1000; Cell Signaling Technology #9102), rabbit anti-Phospho-C-RAF (Ser338) (1:1000; Cell Signaling Technology #56A6), rabbit anti-SNAP tag (1:1000, New England Biolabs #P9310S), and rabbit anti-HA (1:4000, abcam #ab9110) overnight at 4 °C. Proteins were detected with horseradish peroxidase-conjugated secondary antibodies (goat anti-rabbit and goat anti-mouse (Pierce)) and Clarity Western ECL Blotting Substrate (Bio-Rad). All uncropped immunoblots can be found in the Supplementary Information.

Molecule	CL-induced reduction in mobile fraction of CB1-GFP (V5-FZD6-mCherry; antibody-treated, co-expressing V5-FZD6-mCherry)	mobile fraction, CB1 experiment after CL (V5-FZD6-mCherry; with crosslinking, n=34)	mobile fraction, CB1 experiment before CL (V5-FZD6-mCherry; without crosslinking, n=29)	mobile fraction of FZD6-GFP before CL (FZD6–FZD6 dimer; basal, without biotinylated anti-V5/avidin crosslinking, N = 21 ROIs)	mobile fraction of FZD6-GFP after CL (FZD6–FZD6 dimer; with biotinylated anti-V5/avidin crosslinking, N = 31 ROIs)	P-ERK1/2 induction in presence of C59 ([1]; HEK293, C59 5 µM overnight)	effect of overexpression on basal P-ERK1/2 without C59 ([1]; serum-starved HEK293, no C59)
CB1-GFP: GFP-tagged cannabinoid CB1 receptor, negative control (protein, left off: GFP, end not stated, kept, GFP-tagged cannabinoid CB1 receptor, negative control) MKSILDGLADTTFRTITTDLLYVGSNDIQYEDIKGDMASKLGYFPQKFPLTSFRGSPFQEKMTAGDNSPLVPAGDTTNITEFYNKSLSSFKENEENIQCGENFMDMECFMILNPSQQLAIAVLSLTLGTFTVLENLLVLCVILHSRSLRCRPSYHFIGSLAVADLLGSVIFVYSFVDFHVFHRKDSPNVFLFKLGGVTASFTASVGSLFLTAIDRYISIHRPLAYKRIVTRPKAVVAFCLMWTIAIVIAVLPLLGWNCKKLQSVCSDIFPLIDETYLMFWIGVTSVLLLFIVYAYMYILWKAHSHAVRMIQRGTQKSIIIHTSEDGKVQVTRPDQARMDIRLAKTLVLILVVLIICWGPLLAIMVYDVFGKMNKLIKTVFAFCSMLCLLNSTVNPIIYALRSKDLRHAFRSMFPSCEGTAQPLDNSMGDSDCLHKHANNTASMHRAAESCIKSTVKIAKVTMSVSTDTSAEAL	did not exhibit a reduction in the mobile fraction of CB1-GFP upon crosslinking	77,12 ± 2,601%	78,48 ± 2,373%				
FZD6 wt: wild-type FZD6 receptor construct (SNAP-tagged in ERK assays; GFP-tagged in b181) (protein, left off: V5 (on the crosslinked copy), N-terminal, kept | mCherry (on the crosslinked copy), C-terminal, kept | GFP (on the other, mobile copy), C-terminal, kept) HSLFTCEPITVPRCMKMAYNMTFFPNLMGHYDQSIAAVEMEHFLPLANLECSPNIETFLCKAFVPTCIEQIHVVPPCRKLCEKVYSDCKKLIDTFGIRWPEELECDRLQYCDETVPVTFDPHTEFLGPQKKTEQVQRDIGFWCPRHLKTSGGQGYKFLGIDQCAPPCPNMYFKSDELEFAKSFIGTVSIFCLCATLFTFLTFLIDVRRFRYPERPIIYYSVCYSIVSLMYFIGFLLGDSTACNKADEKLELGDTVVLGSQNKACTVLFMLLYFFTMAGTVWWVILTITWFLAAGRKWSCEAIEQKAVWFHAVAWGTPGFLTVMLLAMNKVEGDNISGVCFVGLYDLDASRYFVLLPLCLCVFVGLSLLLAGIISLNHVRQVIQHDGRNQEKLKKFMIRIGVFSGLYLVPLVTLLGCYVYEQVNRITWEITWVSDHCRQYHIPCPYQAKAKARPELALFMIKYLMTLIVGISAVFWVGSKKTCTEWAGFFKRNRKRDPISESRRVLQESCEFFLKHNSKVKHKKKHYKPSSHKLKVISKSMGTSTGATANHGTSAVAITSHDYLGQETLTEIQTSPETSMREVKADGASTPRLREQDCGEPASPAASISRLSGEQVDGKGQAGSVSESARSEGRISPKSDITDTGLAQSNNLQVPSSSEPSSLKGSTSLLVHPVSGVRKEQGGGCHSDT				80,78 ± 2,053%	70,69 ± 2,416%	reduced to basal	increased basal P-ERK1/2
